Measured values published in publication PMC3760798.

Legend:
[1] = target: CBP (CREB-binding protein) (UniProt P45481); assay: anti-CBP co-IP from nuclear extract, time course; conditions: reference: wild type; sites S467
[2] = target: p300 (UniProt B2RWS6); assay: anti-p300 co-IP from nuclear extract, time course; conditions: reference: wild type; sites S467
[3] = target: GB1-tagged RelA-TA2 fragments (all ITC titrations); assay: ITC; all ITC titrations taken together (50 mM or 150 mM NaCl); 25°C; 20 mM Tris pH 8.0, 1 mM DTT; single-binding site model

TAZ1 domain of mouse CBP (residues 340–439), sequence (P45481 340-439): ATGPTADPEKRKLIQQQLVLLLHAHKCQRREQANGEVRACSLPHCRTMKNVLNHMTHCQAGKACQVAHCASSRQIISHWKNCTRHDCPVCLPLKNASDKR

| Substance | binding against the reference [1] | binding against the reference [2] | stoichiometry N [3] |
| --- | --- | --- | --- |
| RelA (p65) (from UniProt Q04207) S467A | weaker | weaker |  |
| TAZ1 domain of mouse CBP (residues 340–439) (from UniProt P45481 340-439) (domain or fragment) |  |  | 0.9 to 1.2 |
